Measurements: patent US20140219913A1 (AbbVie / Abbott, published 2014)

Assays:
NGF = experiment: cell-based or functional assay
TNF-alpha = experiment: cell-based or functional assay

B1: RAB031 (other)
VH: QVQLQESGPGLVKPSETLSLTCTVSGFSLIGYDLNWIRQPPGKGLEWIGIIWGDGTTDYNSAVKSRVTISKDTSKNQFSLKLSSVTAADTAVYYCARGGYWYATSYYFDYWGQGTLVTVSS
VL: LPAQVAFTPYAPEPGSTCRLREYYDQTAQMCCSKCSPGQHAKVFCTKTSDTVCDSCEDSTYTQLWNWVPECLSCGSRCSSDQVETQACTREQNRICTCRPGWYCALSKQEGCRLCAPLRKCRPGFGVARPGTETSDVVCKPCAPGTFSNTTSSTDICRPHQICNVVAIPGNASMDAVCTSTSPTRSMAPGAVHLPQPVSTRSQHTQPTPEPSTAPSTSFLLPMGPSPPAEGSTGDTVAAPDIQMTQSPSSLSASVGDRVTITCRASQSISNNLNWYQQKPGKAPKLLIYYTSRFHSGVPSRFSGSGSGTDFTFTISSLQPEDIATYYCQQEHTLPYTFGQGTKLEIKR
Q: What does the source list for B1?
A: C-terminal Bioassay Mean (IC50, nM): Cell Impedance assay (NGF): 1.1 nM; C-terminal Bioassay Mean (IC50, nM): pERK assay (NGF): 0.5 nM; N-terminal L929 Assay (EC50, pM) (TNF-alpha): 120 pM
